Results: article PMC10672034, “Characterization of a Type II L-Asparaginase from the Halotolerant Bacillus subtilis CH11” (Life, 2023)

Columns and labels:
[1] = molecular target: L-ASNasaZP21 (N-terminally truncated type II L-asparaginase of Bacillus subtilis CH11) (Bacillus subtilis CH11) (UniProt O34482); assay: SEC; HiPrep 16/60 Sephacryl S-200 HR, 50 mM Tris-HCl, 100 mM NaCl, pH 8.5, 0.5 mL/min; molecular weight from a standard curve (Protein Standard Mix 15-600 kDa), semi-log graph
[2] = substrate: NC(=O)C[C@H](N)C(=O)O; assay: Nessler ammonia assay, Lineweaver-Burk plot; format: biochemical, Bacillus subtilis; conditions: pH 9, 60 °C, 10 min, 2-14 mM substrate

stoichiometry N [1]	Molecule	Km [2] [mM]
4	L-ASNasaZP21 (N-terminally truncated type II L-asparaginase of Bacillus subtilis CH11) (from UniProt O34482 21-375) (enzyme)	–
–	L-ASNasaZP21 (type II L-asparaginase, ansZP21) (Bacillus subtilis subsp. subtilis str. 168; S21P) (protein, signal peptide and Cys20 (first 60 bp) removed; E. coli BL21(DE3)pLysS; homotetramer 155 kDa; forward primer encodes …) PHSPETKESPKEKAQTQKVSSASASEKKDLPNIRILATGGTIAGADQSKTSTTEYKAGVVGVESLIEAVPEMKDIANVSGEQIVNVGSTNIDNKILLKLAKRINHLLASDDVDGIVVTHGTDTLEETAYFLNLTVKSDKPVVIVGSMRPSTAISADGPSNLYNAVKVAGAPEAKGKGTLVVLNDRIASARYVTKTNTTTTDTFKSEEMGFVGTIADDIYFNNEITRKHTKDTDFSVSNLDELPQVDIIYGYQNDGSYLFDAAVKAGAKGIVFAGSGNGSLSDAAEKGADSAVKKGVTVVRSTRTGNGVVTPNQDYAEKDLLASNSLNPQKARMLLMLALTKTNDPQKIQAYFNEY	4.75
